Laboratory results taken from patent publication US20070003557A1, “Method for treating cancer using premedication” (priority 2005, published 2007).
Entries after “also recorded” stand apart in the source; their conditions may differ.

Legend:
Assay type in all cases: in vivo, human
[1] = Infusion reactions caused by KM-871 in one patient, premedication before second and third administration (Example 5)
Method: On the day of the second administration of KM-871, Benadryl (100 mg), Zantac (50 mg), Singulair (10 mg), Zyrtec (10 mg) and Dexametazone (10 mg) were administered to the patient followed by the administration of KM-871.
Prior to the third administration of KM-871, Benadryl (100 mg), Zantac (50 mg), Singulair (10 mg), and Zyrtec (10 mg), were administered to the patient.

[2] = Infusion reactions caused by KM-871 in patients, premedication with Sigulair and Zertec (Example 2); conditions: per patient
Method: (§1) The following test was performed by using various compounds to suppress the infusion reactions caused by KM-871.
(§2) KM-871 was administered to each patient with a dose of 40 mg/m^2 once every two weeks for four times as a general rule. Sigulair (10 mg) and Zertec (10 mg) were orally administered to the patient 30 minutes prior to each administration of KM-871 except for the first administration.
(§3) As a test dose, KM-871 (10 mg/m^2), was administered to the patient two weeks prior to the first administration of KM-871 to confirm its safeness.

[3] = Infusion reactions caused by KM-871 in patients, premedication with Sigulair, Zertec, Benadryl, Zantac and Dexametazone (Example 4); conditions: one patient
Method: as §1
KM-871 was administered to each patient with a dose of 40 mg/m^2 or 80 mg/m^2 every two weeks for four times as a general rule. Sigulair (10 mg) and Zertec (10 mg) were orally administered and Benadryl (50 mg), Zantac (50 mg) and Dexametazone (20 mg) were parenterally administered to the patient 30 minutes prior to each administration of KM-871 except for the first administration.
As a test dose, KM-871 (10 mg/m^2), was administered to the patient two weeks prior to the first administration of KM-871 to confirm its safeness. When toxicity or infusion reactions are observed to the patient by the administration, the administration was withdrawn.

[4] = Infusion reactions caused by KM-871 in patients, premedication with Benadryl and Zantac (Example 1); conditions: per patient; for Infusion reaction, 1st administration / Infusion reaction, 2nd administration / Infusion reaction, 3rd administration: KM-871 40 mg/m^2 every two weeks, Benadryl 50 mg and Zantac 50 mg parenterally 30 min before, at the administrations named in column Pre-medication; for Infusion reaction, Test: KM-871 test dose 10 mg/m^2 two weeks prior to 1st administration
Method: The following test was performed to suppress the infusion reactions caused by human anti-GD3 chimeric antibody.
A human chimeric antibody which specifically binds to ganglioside GD3, wherein the human chimeric antibody comprises the H chain V region of the antibody comprising the amino acid sequence represented by SEQ ID NO:3 and the L chain V region of the antibody comprising the amino acid sequence represented by SEQ ID NO:4 was produced according to U.S. Pat. No. 6,437,098 (hereinafter referred to as ‘KM-871’).
KM-871 was administered to each patient with a dose of 40 mg/m^2 once every two weeks for four times as a general rule. Benadryl (50 mg) and Zantac (50 mg) were parenterally administered to the patient 30 minutes prior to each administration of KM-871 except for the first administration.
as §3

[5] = Infusion reactions caused by KM-871 in patients, premedication with Sigulair, Zertec, Benadryl and Zantac (Example 3); conditions: per patient, KM-871 40 mg/m^2 every two weeks, Sigulair 10 mg, Zertec 10 mg orally and Benadryl 50 mg, Zantac 50 mg parenterally 30 min before, at the administrations named in column Pre-medication
Method: as §1
as §2, with “orally administered and Benadryl (50 mg) and Zantac (50 mg) were parenterally administered to the” for “orally administered to the”
as §3

[6] = KM-871 40 mg/m^2 every two weeks, Sigulair 10 mg and Zertec 10 mg orally 30 min before, at the administrations named in column Pre-medication
[7] = KM-871 test dose 10 mg/m^2 two weeks prior to 1st administration
[8] = premedication at 1st administration
[9] = premedication at 1st and 2nd administration
[10] = premedication at 2nd administration

B1: KM-871: human chimeric antibody binding ganglioside GD3; H chain V region SEQ ID NO:3, L chain V region SEQ ID NO:4; produced per U.S. Pat. No. 6,437,098 (antibody, V domains shown)
VH: EVQLVESGGDFVQPGGSLRVSCAASGFAFSHYAMSWVRQAPGKGLEWVAYISSGGSGTYYSDSVKGRFTISRDNSKNTLYLQMRSLRAEDSAVYFCTRVKLGTYYFDSWGQGTLLTVSS
VL: DIQMTQSPSSLSASVGDRVTITCSASQDISNYLNWYQQKPDKAPKLLIFYSSNLHSGVPSRFSGGGSGTDYTLTISSLQPEDIATYFCHQYSKLPWTFGQGTKVEIKR
modifications: Artificial Sequence H chain V region of the antibody; Artificial Sequence L chain V region of the antibody
With B1 the “Infusion reactions at the first administration” value ([1]; 4 mg/m^2 of KM-871, no premedication stated) was “Rash, Urticaria, Itching”, the “Infusion reactions after the third administration” value ([1]; premedication Benadryl 100 mg, Zantac 50 mg, Singulair 10 mg and Zyrtec 10 mg before KM-871) was “infusion reactions did not appear” and the “Infusion reactions after the second administration” value ([1]; premedication Benadryl 100 mg, Zantac 50 mg, Singulair 10 mg, Zyrtec 10 mg and Dexametazone 10 mg the same day before KM-871) was “infusion reactions did not appear”. The “Infusion reaction, 1st administration” value [2, 6] was “CHILLS; also recorded: THROAT SWELLING; also recorded: ITCHING/HIVES”, the “Infusion reaction, 2nd administration” value [2, 6] was “HIVES” and the “Infusion reaction, 3rd administration” value [2, 6] was “HIVES ON HANDS”. For the same molecule, the “Infusion reaction, Test” value [2, 7] was “FACIAL FLUSHING; also recorded: HIVES/ITCHING”, the “Infusion reaction, 1st administration” value ([3]; KM-871 40 mg/m^2 or 80 mg/m^2 every two weeks, premedication (Sigulair, Zertec, Benadryl, Zantac, Dexametazone) at 2nd administration) was “HIVES” and the “Infusion reaction, Test” value [3, 7] was “RASH”. The “Infusion reaction, 1st administration” value [4, 8] was “ARMS, LEGS, ERYTHEMA; also recorded: FEVER; also recorded: RIGORS”, the “Infusion reaction, 2nd administration” value [4, 8] was “CHILLS; also recorded: FEVER” and the “Infusion reaction, 3rd administration” value [4, 8] was “HIVES”. For the same molecule, the “Infusion reaction, 1st administration” value [4, 9] was “FULLNESS IN THROAT”, the “Infusion reaction, 2nd administration” value [4, 9] was “HIVES” and the “Infusion reaction, 1st administration” value [4, 10] was “ITCHING; also recorded: RIGORS”. For the same molecule, the “Infusion reaction, 3rd administration” value [4, 10] was “CHILLS”, the “Infusion reaction, Test” value [4, 8] was “FEVER; also recorded: HIVES” and the “Infusion reaction, Test” value [4, 9] was “ITCHING”. The “Infusion reaction, 2nd administration” value [5] was “ITCHING”, the “Infusion reaction, 1st administration” value ([5]; premedication at 1st, 2nd and 3rd administrations) was “HIVES; also recorded: ITCHING” and the “Infusion reaction, 1st administration” value ([5]; premedication at 2nd and 4th administrations) was “FEVER; also recorded: HIVES/ITCHING”. The “Infusion reaction, 1st administration” value ([5]; premedication at 2nd, 3rd and 4th administrations) was “FEVER”.
